Experimental data: patent US20250297255A1 (ARSENAL BIOSCIENCES, published 2025)
Positions count from the first letter of the chain named.

T1: SLC34A2 peptide fragment (peptide 1) (human, biotinylated (site not stated))
T1 construct: ELISA antigen captured on NeutrAvidin plates; also called SLC34A2 peptide immunogen
T1 peptide: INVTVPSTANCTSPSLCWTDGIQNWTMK

T2: Human Solute Carrier Family 34 Member 2 (SLC34A2) (human, UniProt O95436 1-690)
T2 construct: Endogenous on OVCAR-3 cells; engineered on 786-O cells in the CAR kinetics assay; also called NaPi2b; NPT2B
T2 sequence: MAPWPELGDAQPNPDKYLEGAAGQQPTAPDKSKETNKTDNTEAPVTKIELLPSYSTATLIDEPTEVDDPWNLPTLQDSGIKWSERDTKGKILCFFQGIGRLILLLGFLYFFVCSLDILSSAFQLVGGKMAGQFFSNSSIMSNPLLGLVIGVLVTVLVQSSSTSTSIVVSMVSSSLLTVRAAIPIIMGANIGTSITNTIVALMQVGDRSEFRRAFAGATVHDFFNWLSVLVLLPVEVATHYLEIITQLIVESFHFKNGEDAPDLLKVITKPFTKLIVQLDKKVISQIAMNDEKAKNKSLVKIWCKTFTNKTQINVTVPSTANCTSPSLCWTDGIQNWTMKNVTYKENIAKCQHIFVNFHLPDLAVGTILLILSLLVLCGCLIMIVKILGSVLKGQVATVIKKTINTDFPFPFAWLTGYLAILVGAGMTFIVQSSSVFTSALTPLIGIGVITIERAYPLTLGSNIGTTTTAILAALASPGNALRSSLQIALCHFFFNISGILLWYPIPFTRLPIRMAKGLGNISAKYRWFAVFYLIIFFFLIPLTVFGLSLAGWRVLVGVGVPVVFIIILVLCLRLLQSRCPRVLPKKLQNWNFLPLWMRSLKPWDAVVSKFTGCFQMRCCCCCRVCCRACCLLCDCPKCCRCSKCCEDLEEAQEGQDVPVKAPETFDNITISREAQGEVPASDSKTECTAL

B1: TMPRSS4 Ab74 scFv (VH-VL) (scFv)
scFv: EVQLLESGGGLVQPGGSLRLSCAASGFTFSSYAMHWVRQAPGKGLEWVSSISSSSTYIHYADSVKGRFTISRDNSKNTLYLQMNSLRAEDTAVYYCARVGRYYGSGSSLVDYWGQGTLVTVSSGGGGSGGGGSGGGGSDIQMTQSPSSLSASVGDRVTITCRASQSVSSWLAWYQQKPGKAPKLLIYDASSLQSGVPSRFSGSGSGTDFTLTISSLQPEDFATYYCQQAKSFPPTFGQGTKVEIK
notes: on monoclonal phage in the screen
B2: TMPRSS4 Ab75 scFv (VH-VL) (scFv)
scFv: EVQLLESGGGLVQPGGSLRLSCAASGFTFSSYAMSWVRQAPGKGLEWVSSISSASSYKYYADSVKGRFTISRDNSKNTLYLQMNSLRAEDTAVYYCARDIYSSGWRGYYYYGMDVWGQGTTVTVSSGGGGSGGGGSGGGGSDIQMTQSPSSLSASVGDRVTITCRASQGIRNDLNWYQQKPGKAPKLLIYAATRLQSGVPSRFSGSGSGTDFTLTISSLQPEDFATYYCQQAHSFPYSFGQGTRLEIK
notes: as for B1
B3: TMPRSS4 Ab76 scFv (VH-VL) (scFv)
scFv: EVQLLESGGGLVQPGGSLRLSCAASGFTFSSYAMSWVRQAPGKGLEWVSAISGSGGNAYYADSVKGRFTISRDNAKNSLYLQMNSLRAEDTAVYYCAKNSWGSYRPRAFDIWGQGTMVTVSSGGGGSGGGGSGGGGSDIVMTQSPDSLAVSLGERATINCKSSQSVLYSSNNKNYLAWYQQKPGQPPKLLIYWASTRASGVPDRFSGSGSGTDFTLTISSLQAEDVAVYYCQQYLSLPYTFGQGTKVEIK
notes: as for B1
B4: TMPRSS4 Ab77 scFv (VH-VL) (scFv)
scFv: QVQLVQSGAEVKKPGASVKVSCKASGNIFTAQYMHWVRQAPGQGLEWMGWMNPNTVYTGSAQKFQGRVTMTRDTSTSTVYMELSSLRSEDTAVYYCARDWVGDGYNSFDYWGQGTLVTVSSGGGGSGGGGSGGGGSDIVMTQSPDSLAVSLGERATINCKSSQSVLYSSNNKNYLAWYQQKPGQPPKLLIYWASTRESGVPDRFSGSGSGTDFTLTISSLQAEDVAVYYCQQYYTTPFTFGPGTKVDIK
notes: as for B1
B5: TMPRSS4 Ab78 scFv (VH-VL) (scFv)
scFv: EVQLLESGGGLVQPGGSLRLSCAASGFTFSSYGMNWVRQAPGKGLEWVSAISGSGGRTYYADSVKGRFTISRDNAKNSLYLQMNSLRAEDTAVYYCAKGTYYSSPKYSFDYWGQGTLVTVSSGGGGSGGGGSGGGGSDIQMTQSPSSLSASVGDRVTITCRASQDIKNFLAWYQQKPGKAPKLLIYAASSLQSGVPSRFSGSGSGTDFTLTISSLQPEDFATYYCQQSYSTPWTFGQGTKLEIK
notes: as for B1
B6: TMPRSS4 Ab8 scFv (VH-VL) (scFv)
scFv: QVQLVQSGAEVKKPGASVKVSCKASGYRFTSQYMHWVRQAPGQGLEWMGIINPSGGSTSYAQKFQGRVTMTRDTSTSTVYMELSSLRSEDTAVYYCARGRIAVAGHPLGYWGQGTLVTVSSGGGGSGGGGSGGGGSDIQMTQSPSSLSASVGDRVTITCRASQSISSWLAWYQQKPGKAPKLLIYGASSLQSGVPSRFSGSGSGTDFTLTISSLQPEDFATYYCQQANSFPPTFGGGTKVEIK
notes: as for B1
B7: TMPRSS4 Ab9 scFv (VH-VL) (scFv)
scFv: QVQLVQSGAEVKKPGASVKVSCKASGYTFTRYYMHWVRQAPGQGLEWMGWINPNSGGTNYAQKFQGRVTMTRDTSTSTVYMELSSLRSEDTAVYYCARGGSWGSGPLGYWGQGTLVTVSSGGGGSGGGGSGGGGSDIQMTQSPSSLSASVGDRVTITCQASQDISRFLHWYQQKPGKAPKLLIYGASNLKSGVPSRFSGSGSGTDFTLTISSLQPEDFATYYCQQSYSTPPTFGGGTKVEIK
notes: as for B1
B8: SLC34A2 Ab 5 (antibody, human IgG1, kappa, V domains shown)
VH: QVQLQESGPGLVKPSETLSLTCSVSGGSISSSSYYWGWIRQPPGKGLEWIGSIDYSGSTYYNPSLKSRVTISIDTSKNQFSLRLSSVTAAEKAVYYCARHGRGTIGYFDYWGQGTLVTVSS
VL: DIQMTQSPSSLSASVGDRVTITCRASQSISSYLNWYQQKPGKAPKLLIYAASSLLTGVPSRFTGSGSGTDFTLTISSLQPEDFGTYYCQQSYSPPLTFGGGTKVEIKR
notes: recombinant hIgG1/kappa
B9: SLC34A2 Ab 6 (antibody, human IgG1, kappa, V domains shown)
VH: QVQLLESGGGLVQPGGSLRLSCAASGFTFSSSAMAWVRQAPGKGLEWVSAISSSGDNTYYADSVKGRFTISRDTSKNTLSLQMSSLRAEDTAIYYCAKQGTNWGLYFDYWGQGTLVTVSS
VL: DIQMTQSPSSLSASVGDRVTIACRASQVISNYLAWYQQKPGKVPKLLIYVASTLQSGVPSRFSGSGSGTDFTLTISSLQPEDVATYYCQNYNSAPWTFGQGTKLEIKR
notes: recombinant hIgG1/kappa
B10: SLC34A2 Ab 9 (antibody, human IgG1, kappa, V domains shown)
VH: QVQLVESGGGLVQPGRSLRLSCSGSGFTSGDYAVSWVRQAPGKGLEWVGFIRTKPYGETTEYAASVKGRFTISRDDSKSIAYLQMNSLKAEDTAVFYCTFIPVSRFLEWLPWGQGIPVTVSS
VL: B9 VL with S14F, A22T, V28D, S30G, K39T, G41E, V50A, N92Y, A94V, L104V
notes: recombinant hIgG1/kappa
B11: SLC34A2 Ab 10 (antibody, human IgG1, kappa, V domains shown)
VH: QVQLLESGGGLVQPGASLRLSCAASGFTFSTYAMTWVRQAPGKGLEWVSGINGGGDTTYYADSVKGRFTISRDNSKNTLYLQMNSLRAEDTAVYYCAVRGYTYGYFFDYWGQGTLVTVSS
VL: B9 VL with A22T, V28G, K39R, V50A, Q55R, N90K, W96L, Q100G, L104V
notes: recombinant hIgG1/kappa
B12: SLC34A2 Ab 15 (antibody, human IgG1, kappa, V domains shown)
VH: QVQLQESGPGLVKPSETLSLTCTVSGGSVSSASYYWSWIRQPPGKGLEYIGYIYYSGSTYYNPSLKSRVTISIDTSKNQFSLNLRSVTAADTAVYYCARYIVGRPGFNWFDPWGQGTLVTVSS
VL: B8 VL with L46F, Y49S, A50P, L55Q, T56S, T63S, G84A, P94I, L96W, G100Q
notes: recombinant hIgG1/kappa
B13: SLC34A2 Ab 16 (antibody, human IgG1, kappa, V domains shown)
VH: B12 VH with G27D, A32V, Y49W, Y54W, N83K
VL: DIQMTQSPSSLSASVGDRVTITCRASQTISSYLNWYQQKPGKAPKLLISPASNLQSGVPSRFSGSGSGTDFTLTISSLQPEDFATYYCQQSYIIPWTFGQGTKVEIKR
notes: recombinant hIgG1/kappa
B14: SLC34A2 Ab 8 (antibody, human IgG1, kappa, V domains shown)
VH: QVQLQESGPGLVKPSETLSLTCTVSGGSISSRSYYWGWIRQPPGKGPEWIGSIYYSGSTFYNPSLKSRVTISEDTSKSQFSLKVTSVTAADTAVYYCARHPAGYSSSWSAFDIWGQGTMVTVSS
VL: EIVLTQSPSSLSASVGDRVTITCRASQSISSYLNWYQLKPGKAPKLLIYAASSLHSGVPSRFSGSGSGTDFTLTISSLQPADFATYYCQQAYISLTFGQGTRLEIKR
notes: recombinant hIgG1/kappa from TAP products in Expi293
B15: SLC34A2 Ab 11 (antibody, human IgG1, kappa, V domains shown)
VH: QVQLQESGPGLVKPSETLSLTCTVSGGSISSSSYYWGWIRQPPGKGLEWIGSLYYSGSTYYNPSLKSRVTISVDTSKNQFSLKLNSVTAADTAVYYCTRHPRGIAARWGNWFDPWGQGTLVTVSS
VL: EIVLTQSPSSLSASVGDRLTITCRASQTISSYLNWYQQKPGKAPKVLIYAASSLQSGVPSRFSGSGSGTDFTLTISSLQPEDFATYYCQQSFIIPYTFGQGTKLEIKR
notes: as for B14

The binders below were run against T3, Human TMPRSS4 (Transmembrane protease, serine 4), wild type full length (human, UniProt Q9NRS4 1-437) (assay: flow cytometry, monoclonal phage on HEK293T-TMPRSS4 cells;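 further: bound phage detected with a PE-labelled mouse anti-M13 monoclonal antibody, read by flow cytometry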).
T3 construct: Type II membrane protein over-expressed on HEK293T cells (also endogenous on H1975 and LUDLU-1 cells); also called TMPRSS4 WT; HEK293T-TMPRSS4
T3 sequence (Q9NRS4 whole entry): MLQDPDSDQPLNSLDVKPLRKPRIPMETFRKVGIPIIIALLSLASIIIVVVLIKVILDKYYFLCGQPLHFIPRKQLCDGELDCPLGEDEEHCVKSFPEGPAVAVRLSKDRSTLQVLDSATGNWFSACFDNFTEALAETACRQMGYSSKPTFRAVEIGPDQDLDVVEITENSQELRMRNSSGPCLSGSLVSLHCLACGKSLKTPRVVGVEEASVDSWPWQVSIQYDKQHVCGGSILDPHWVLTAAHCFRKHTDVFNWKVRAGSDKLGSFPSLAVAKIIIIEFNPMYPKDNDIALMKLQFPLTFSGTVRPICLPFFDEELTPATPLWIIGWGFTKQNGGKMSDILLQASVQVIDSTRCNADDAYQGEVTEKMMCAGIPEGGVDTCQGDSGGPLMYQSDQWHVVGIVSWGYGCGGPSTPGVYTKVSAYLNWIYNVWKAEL
B1: binds. B2: binds. B3: binds. B4: binds. B5: binds. B6: binds. B7: binds.

Target: T1, SLC34A2 peptide fragment (peptide 1)
Assay: ELISA, biotinylated antigen on NeutrAvidin plate, anti-human Fc-HRP
B8: no binding. B9: no binding.

What follows are binders tested against T2, Human Solute Carrier Family 34 Member 2 … (assay: flow cytometry on OVCAR-3 cells (endogenous human SLC34A2), hIgG1/kappa, 8 five-fold dilutions from 133 nM;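 further: binding read as geometric mean fluorescence intensity, with non-transfected HEK293 cells serving as the negative control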).
B10 was tested, and the EC50 was 37 nM and the “Max Signal by flow cytometry” value was 281. In the case of B11, the EC50 is reported as 20 nM and the “Max Signal by flow cytometry” value is reported as 218. B12 was tested, and the EC50 was 8 nM and the “Max Signal by flow cytometry” value was 346. With B13 the EC50 was 6 nM and the “Max Signal by flow cytometry” value was 296. B14 was tested, and the EC50 was 6 nM and the “Max Signal by flow cytometry” value was 354. In the case of B15, the EC50 is reported as 6 nM and the “Max Signal by flow cytometry” value is reported as 224. For B8, the EC50 was 5 nM and the “Max Signal by flow cytometry” value was 271. With B9 the EC50 was 6 nM and the “Max Signal by flow cytometry” value was 211.
